Experimental findings from patent US20140141994A1 are described below.

Assay [1] concerns the target SYNAGIS®. Briefly: SPR BIAcore 3000, both injected at 1 µM over immobilized SYNAGIS. In general terms: In SPR one partner is held on a chip, and binding of the other changes the refractive index at the surface.
In assay [2] the target is SYNAGIS®. Put plainly: SPR BIAcore 3000, SYNAGIS immobilized via primary amino groups, equilibrium binding of soluble SynBP01.
Sequence of SYNAGIS® (VH, as listed by the source, chain 1 of 2): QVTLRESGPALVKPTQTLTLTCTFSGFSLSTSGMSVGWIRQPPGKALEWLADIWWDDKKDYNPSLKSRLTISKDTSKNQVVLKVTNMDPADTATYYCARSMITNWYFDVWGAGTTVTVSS
Sequence of SYNAGIS® (VL, as listed by the source, chain 2 of 2): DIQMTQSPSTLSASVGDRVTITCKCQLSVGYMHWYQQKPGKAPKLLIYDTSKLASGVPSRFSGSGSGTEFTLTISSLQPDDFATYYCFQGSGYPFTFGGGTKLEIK

B1: SynBP01-Fc (Fc fusion, not shown: a dimerising Fc or GST)
chain: IEVKDVTDTTALITWSPPSVLVGYTIELTYGIKDVPGDRTTIDLTEDENQYSIGNLKPDTEYEVSLISVTEFGRRRSKETFTT
In turn, B1 came in with a fold increase in total response units compared to SynBP01 in assay [1] of 6 fold.

B2: SynBP01 (designed binder)
chain: AAIEVKDVTDTTALITWSPPSVLVGYTIELTYGIKDVPGDRTTIDLTEDENQYSIGNLKPDTEYEVSLISVTEFGRRRSKETFTTGGGTLEHHHHHH
Broadly, the Kd is the constant that tells how readily two partners part at equilibrium. Read a low Kd as higher affinity. In the case of B2, the Kd in assay [2] stood at 16 µM.
